Columns and labels:
A431/CCKBR tumors = details: mouse, in vivo, iv
Text: The image reconstruction and processing was accomplished by using VivoQuant 3.0 Patch1 software.

[1] = cited from earlier work
Text: The radiolabeled PP-F11N is a small molecular weight peptide (2.032 kDa), which can be reabsorbed in the proximal tu ...

Compound	location of radioactive signals in SPECT/CT (A431/CCKBR tumors)	radiation dose received by stomach (median) ([1]; MTC patients, highest organ dose)	kidney radiation dose ([1]; six MTC patients)
CCCC[C@H](NC(=O)[C@H](Cc1c[nH]c2ccccc12)NC(=O)CNC(=O)[C@H](Cc1ccc(O)cc1)NC(=O)[C@H](C)NC(=O)[C@@H](CCC(=O)O)NC(=O)[C@@H](CCC(=O)O)NC(=O)[C@@H](CCC(=O)O)NC(=O)[C@@H](CCC(=O)O)NC(=O)[C@@H](CCC(=O)O)NC(=O)[C@@H](CCC(=O)O)NC(=O)CN1CCN(CC(=O)O)CCN(CC(=O)O)CCN(CC(=O)O)CC1)C(=O)N[C@@H](CC(=O)O)C(=O)N[C@@H](Cc1ccccc1)C(N)=O [[^111In]In-PP-F11N, metal not drawn]	only detected in the excretion organs including kidneys and bladder		
CCCC[C@H](NC(=O)[C@H](Cc1c[nH]c2ccccc12)NC(=O)CNC(=O)[C@H](Cc1ccc(O)cc1)NC(=O)[C@H](C)NC(=O)[C@@H](CCC(=O)O)NC(=O)[C@@H](CCC(=O)O)NC(=O)[C@@H](CCC(=O)O)NC(=O)[C@@H](CCC(=O)O)NC(=O)[C@@H](CCC(=O)O)NC(=O)[C@@H](CCC(=O)O)NC(=O)CN1CCN(CC(=O)O)CCN(CC(=O)O)CCN(CC(=O)O)CC1)C(=O)N[C@@H](CC(=O)O)C(=O)N[C@@H](Cc1ccccc1)C(N)=O [[^177Lu]Lu-PP-F11N, metal not drawn]		0.42 Gy/GBq	relatively low kidney radiation dose

Reference: article PMC7696055 (Pharmaceutics, 2020)
